# According to paper PMC3109872:
# B1: EBS3 probe (Ccl9) (dsDNA)
# DNA 1: CTCTAGTACCAGGGAATTTAACACCCTCTTC
# DNA 2: GAAGAGGGTGTTAAATTCCCTGGTACTAGAG
# Target: ETV5 DNA-binding domain (pET-41a) (UniProt Q9CXC9 368-448)
# Experiment: EMSA
# Sequence of ETV5 DNA-binding domain (pET-41a) (Q9CXC9 368-448): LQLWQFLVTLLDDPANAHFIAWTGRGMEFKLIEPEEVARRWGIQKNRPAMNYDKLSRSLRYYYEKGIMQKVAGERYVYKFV
binder,measurement,value
B1,binding result,binds
